According to the supplement of paper PMC10567573:

B1: TRIM39 (parent)
chain: YPCVLATEGFTSGRHYWEVEVGDK
B2: TRIM15 (parent)
chain: LLARLRELEQQIWKERDEYITKVS

Variants of: B1
Assay: protein stability index of a GFP-peptide fusion (GPS, HEK-293T) (PSI 1-6); higher = more stable
Settings: c terminus: a fixed tail appended
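Further: lentivirally expressed fusions sorted by FACS into six bins by GFP to DsRed ratio, PSI derived from sequencing read proportions per bin multiplied by bin number.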

Protein stability index of substitutions, site by site:
G22: E 1.88, Y 1.98, L 1.81, M 1.58, S 2.19, N 1.91, W 2.37, V 1.82, K 2.5, F 1.53, Q 2.38, P 1.85, T 1.76, D 1.92, I 1.67, C 1.66, H 1.95, A 2.05, R 1.75
V21: P 1.43, I 2.24, H 1.86, M 1.9, T 1.6, Q 1.87, Y 2.14, K 2.15, G 1.84, W 1.92, L 1.57, N 2.03, S 1.88, R 2.05
D23: G 1.82, Y 1.91, A 1.79, P 1.43, C 1.71, M 1.57, Q 2.44, H 2.98, I 1.76, N 3, K 1.02, S 1.76, R 1.45, L 2.51, F 1.58, T 2.32, E 1.85, V 1.65
K24: Y 2.5, S 1.87, M 1.95, F 2.23, I 2.65, H 1.57, T 2.36, G 1.92, L 2.05, P 2.16, Q 1.7, V 1.96, E 2.66, W 1.96, N 2.1, R 1.75, D 1.07, A 1.28, C 2.21

Variants of: B2
Assay: as above
Settings: c terminus: a fixed tail appended

Protein stability index, by site and new letter:
E18: M 2.33, G 1.81, Q 1.18, N 2.08
L1: K 2.05, C 1.84, D 2.31, Q 2.83, P 2.37, G 1.55, M 1.03, T 1.63, Y 2.35, H 2.19, A 1.79, F 1.55, E 2.2, S 2.12, R 1.87, N 3.22
L2: C 1.6, N 2.18, I 1.65, A 2.12, K 1.25, H 2.13, E 1.38, Y 4.12, F 1.67, D 2.55, V 1.74, W 2.23, S 2.34, P 3.13, M 1.49, G 1.9, Q 1.22, T 2.56
Q10: S 1.18, G 1.58, R 2.02, F 3.2, I 2.65, D 2.21, E 1.51, V 2.31, M 3.32, T 1.09, N 2.35, K 2.02, P 1.4, W 3.11
Q11: M 1.08, A 1.98, Y 1.88, H 1.98, R 2.29, W 1.08, N 1.68, V 2.12, D 2.36, S 2.51, P 1.62, E 1.01, G 1.41
E9: D 3.17, T 3.38, N 1.94, R 2.22, Q 1.07, F 3.06, C 2.11, P 2.29, H 1.45, L 1.8, Y 1.59, I 1.96, K 1.62, W 1.69
K14: N 1, P 2.2, H 1.67, I 2.26, T 2.85, E 1.05, A 1.24, F 1.68, L 2.06
E7: R 1.07, P 2.57, D 1.6, C 2.53, Y 3.38, N 1.84, I 1.03, Q 1.61, L 2.97
